The DeepSol protein solubility set

Assay: soluble on expression in E. coli; label from the status in PepcDB or PDB records
In the case of “MAHHHHHHMMSPFPPLPVYLSGLLTLHVPTRCLHFLVLTPMKTRVGLHRCCASYLRLLSQDRLQLHNPIEFIGALHFFTSLCSPLGVADFLRMEDPAAQEVVVTPWTVEGDVNYDKLIKNFGCQAIDDKLLERMERLTGKKPHHFLRRGIFFSHRDLNLILDAYEKGQPFYLYTGRGPSSESMHVGHLIPFMFTKWLQDTFHVPLVIQLTDDEKFFFKDLTMEEIDKMTTENLKDIIAFGFDPKLTFIFRDFEYVGQMYRIVARIEKAYTASQVRGCFGFKMEDNCGRWMFPAIQAAPSFSAAFPHIFPLQKGNVFCMIPQAIDQDPYFRLTRDVAPRMGYLKPAVIHSKFFPGLSGSKGKMSSSTGAAVFLTDTPKMIKDKINKHAFSGGGADKKEQLLLGGNTNVDVPVQWLRFFLEDDEELKRLQKDYMLGRIMTGDVKKVLIRQITSIVTAHQESRKKVTEADVELFTAVRVMGPAKEEAESRK”, the “soluble on expression in E. coli” value is reported as “not soluble”.
In the case of “MGSDKIHHHHHHMKMNIPVIFQFLKDLSANNNREWFNEHRSEYEVARAEFDNFLATVIARISLFDETIRGIQPKDCTYRIYRDTRFSADKTPYKIHFGGYINAKGKKSDHCGYYVHLQPDGSMLAGGSLCLPPNVLKAVRQAIYDNVEEYISIVEDPEFKKYFPVVGEDFMKTAPKGFPKDFKYIDYLKCRQFVCSYLVPDDFFTRADMMEQIEKAFRQFKRFADFINYTIDDFE”, the “soluble on expression in E. coli” value is reported as “not soluble”.
For “MGSDKIHHHHHHMRNPPFIVEYELTLRCNFRCKHCYCEAGKPHLEELSFEEIKELILDMKELGTWALDIVGGEPLLHPQILDILAFGKEVGQRLMINTNGSLATKEMVQKIKKANPDVLIGVSLEGPDPETNDFVRGTGNFKRAVQGIKNFVDEGFQVTILNVINKRNWRKFEDMVKLALELGVNALYVDRFIPVGRGMIHARELDMNPEEWRVAIKHVLGVIENYKNHLTFYVEESISGKPCSAGITHASVLADGTVVPCGHFRYRKEFYMGNVREKKFSEIWHEYTPIPSPASCQQCPILNECGGGCKAYYLLREHEKDEAICFLNKERYNIK”, the “soluble on expression in E. coli” value was “not soluble”.
In the case of “MAHHHHHHMMRQNLTSDSLITDTLRKAGVPCDVVGIVETVAGACRAIAAGLRNDGVTAAKSKNNFGDDVLSVDVMADKIISEALNSCQHVASYVSEESPSLASTAHSGKATYSVSYDPLDGSSIITSNFTVGSIFAVWPGNTPIGLTVRDMAASVVAVYGPRVVLFVGQEELGVAEFFCGADGEWKLAKRVWAGVCTPRTATVTAAGRGVKLKATVFSPGNLRAVRHLPWYKQLITMYMQEGATLRYTGGMVPDVCQIIVKGDGIYMTPASPQHKMKLRLLFEAAPMAFLIHCAGGRSTTGLTNMMNVRVVSMEQTTPIALGCARDVERYERMCRGCSKL”, the “soluble on expression in E. coli” value is reported as “soluble”.
For “MHKNGNNGPVIDTKWHYLGPDSEKYGPYMSKDMLFWLQAGYFNDGLQLKTENEPNYHTLGEWSQLLGTHPFSMPVHSLDATIAQMNSMRPHGAMMMVPPGLQNQFQPPMPMRFPPFLPMPLLHQMNQNGPPMGAQMHSQPPSEPIDAGSLSHTPDSENETRLNEQTLQQPPSWLIALGLAGHGRKPHHHQQILAHQHIPQMQHANVATDQVVMKSVECQTEPVEISKEQASRVLSELLGQMVIIN”, the “soluble on expression in E. coli” value was “not soluble”.
With “MSLSERIIVTYQVAAAPAEIAARAEALAIEQSVECPLAAVTEQQIRDEIVGRVEAIAPIGETRFSVRVSLASATAPAEPGQLLNMLFGNSSIQPDVTLADVELPPAYPAAFGGPKLGISGLRAKLGAPRRALTGSALKPQGLAPEALAGLAHRLALGGVDLIKDDHGIADQAFSPFAARVPAVARAMREACAVRGAAMLYAPHVSGSLDDMRRQLDIVRREGLSVVMLMPMIVGLANFHLIAKEAEGLIVLAHPSLAGAQRIAPDLLLGKLFRLLGADATIFPHYGGRFAYTPETCRALADAARRDWHDLKPCLPVPAGGIAIDRIKELLAFYGTDVMLLIGGSLLAAGEQLTEHAARFTAEVASHGQEGHHHHHH” the “soluble on expression in E. coli” value was “soluble”.
With “MTKNKSVARDERYYKAYLESRTISRRGLFRGLLKGVQPSTTTAPSDITAPPPLRPPYAIDEPHFQQSCTGCGVCVAACEENLIVMVNQRPALNFSTPYFSTPYCSRCQACSTACQTGALSSAEFHIAARPSVKNICQNTYIYCDSCADYCEKQALIWQANQPPTLVTELCDGCGECVFRCPARILEMQI” the “soluble on expression in E. coli” value was “not soluble”.
In the case of “GPGSMAPNQFVELVDTVEKYATRGSNECGCRIDTREESIPSNTLVGYPFANAEGVGVHLSYRKGDITLSADVSSNPKATWRDVLPTFSWTRSLRGQQHEVLLRLAMTPLFAYSFSHPQFTCSSEVNFMDGFRSKFTTSTQLSMRNQLGACVEYDPSRSGVIDYTVAFLRAGCSAVLGGDFVVQYNATRGLGVHTRIPVKPFMGAVALVERGRVIIGTEARSPCGAQMMMNLDLVNSRVMLAVVRNISTVWKFTFNYSAPLPGTSSAARRFGLVFTSQDAP”, the “soluble on expression in E. coli” value is reported as “not soluble”.
In the case of “MNVYNKADSFSLESDSIKDVIHDYICWLSMTDETRPSIGNVFTAMETFKIDAVRYYDGNIYDLAKDINTMSFDSFIRSLQNITSKKDKLTVYGTMGLLSIVVDINKGRDVSNIKFAAGIIILMEYIFDDTDLSHLKIALYRRIQRRYPIDDDR”, the “soluble on expression in E. coli” value is reported as “not soluble”.
In the case of “MGSDKIHHHHHHMQFDNLLSRADDGTLQVLLGNAAVRLIKLLDPSLVTPSRLREILMELHTPASLLLTKDSRAMLLDLLRPEQAKILATIMQVPLTGDIFETLKKTSIRHGSNRERALFDFFELELPQPEDSVQSSSLELAVSNYPLFAHQRIAARKVKNYFKQEPRRVLLHMPTGSGKTRTAMNIIADHLRSVEPTIVVWLAYSEELCEQAATEFQKAWQCLGDRQVSLYRFWGEHEIDVDKLEDGIVVAGLSKVYNRTKQSIQFINRLGKVSSLVIIDEAHQAIAETYKLVLDALVVPYENTALLGLTATPGRTWSDINVDTELSEFFAKNKVTLEVSGYSNPVDYLISEEYLAKPNFRSLFYKNGLKLTQKDLERIQQELEIPQHILEQLADDEQRNLSIIIEVEELAKRHQRILIFGISIKHSKLLATVLRARGLQANVVTGDTPLLERTRLINSFKDDSDETKIICNYGVLTTGFDAPRTSAAVIARPTKSLVLYSQMVGRAIRGVKAGGNVTAEIVTVVDSALRGFGSLEEAFSNWEDVWHKEKI”, the “soluble on expression in E. coli” value is reported as “not soluble”.
With “MTDGSMDIDAMLEGGLEMAKNDRSQSRQRSPARSNRSRSRSKDRKSSSRRSRSRSRDRRGDRGDRRRSRSRSKDRRTTRRRSPSRERRRSRSRDRGAPRRRSRTRSRDRRRSPPRRRDRRTPPRRSPGRRSPPRSRLPGPERRDVMPFNPRHSPPKNAKLELTAEERDQRTLLIMQIARDTRPRDLEEFFSAVGAVRDVRIITDSRTGRSKGICYVEFWDEESVPLGLALNGQRLMGAPLQIQRTCAERNRAANSSVASTLGFVAPGNKGPTHVLVENLHPKIDEKMIRDIFESFGRIEKIDLEVDSNRENRGFATITFRNADDAQKSCEQLNNFELAGRCIRLSIKQESQAPAVKKEEASIHQRSLDDVGDRQGFSLGAGGRQQLMAKLAQGTGSGMELTASAQMAAQHAGHSQIPSIATQCFLLSNMFDPSKETEPAWDHDIREDVIEQCLAHGGALHVFVDKGSEQGNVYVKCPSIVIAHQAVSALHGRWFSGKVITANYVPVNSYHDLFPDAVHARIVLTTRGAAPVVPIVPMVPVVPPQGIANGYGAYGMMAPAHGAPPPPPPQQQGQYGGYGRY” the “soluble on expression in E. coli” value was “not soluble”.
For “MGSDKIHHHHHHMAYFAEIFQIPFEESWGYVTNGGTEGNMFGCYLARELFPDSTLYYSKDTHYSVGKIAKLLQMKSCVIESLDNGEIDYDDLIHKIKTNKESHPIIFANIGTTMTGAIDDIEMIQERLAQIGIMRRDYYIHADAALSGMILPFVDHPQAFSFAHGIDSICVSGHKMIGSPIPCGIVVAKRQNVERISVDVDYISTRDQTISGSRNGHTVLLMWAAIRSQTNLQRRHRIQHCLKMAQYAVDRFQAVGIPAWRNPNSITVVFPCPSEHIWKKHYLATSGNMAHLITTAHHRDTRQIDSLIDDVIFDLQGASKRTVGF”, the “soluble on expression in E. coli” value was “not soluble”.
For “TIKNFTFFSPNSTEFPVGSNNDGKLYMMLTGMDYRTIRRKDWSSPLNTALNVQYTNTSIIAGGRYFELLNETVALKGDSVNYIHANIDLTQTANPVSLSAETANNSNGVDINNGSGVLKVCFDIVTTSGTGVTSTKPIVQTSTLDSISVNDMTVSGSIDVPVQTLTVEAGNGLQLQLTKKNNDLVIVRFFGSVSNIQKGWNMSGTWVDRPFRPAAVQSLVGHFAGRDTSFHIDINPNGSITWWGANIDKTPIATRGNGSYFIKSAW”, the “soluble on expression in E. coli” value was “soluble”.
